According to US20040191840A1:

How the values were obtained:
[1] = molecular target: T1, natural human type I interferon receptor (IFN-R) on the surface of human cells (human) (UniProt P17181); experiment: inhibition of binding of 125I-IFN alpha 2 (100 pM) to Daudi cells, 4 C; competitor: labelled IFN alpha 2
T1 sequence: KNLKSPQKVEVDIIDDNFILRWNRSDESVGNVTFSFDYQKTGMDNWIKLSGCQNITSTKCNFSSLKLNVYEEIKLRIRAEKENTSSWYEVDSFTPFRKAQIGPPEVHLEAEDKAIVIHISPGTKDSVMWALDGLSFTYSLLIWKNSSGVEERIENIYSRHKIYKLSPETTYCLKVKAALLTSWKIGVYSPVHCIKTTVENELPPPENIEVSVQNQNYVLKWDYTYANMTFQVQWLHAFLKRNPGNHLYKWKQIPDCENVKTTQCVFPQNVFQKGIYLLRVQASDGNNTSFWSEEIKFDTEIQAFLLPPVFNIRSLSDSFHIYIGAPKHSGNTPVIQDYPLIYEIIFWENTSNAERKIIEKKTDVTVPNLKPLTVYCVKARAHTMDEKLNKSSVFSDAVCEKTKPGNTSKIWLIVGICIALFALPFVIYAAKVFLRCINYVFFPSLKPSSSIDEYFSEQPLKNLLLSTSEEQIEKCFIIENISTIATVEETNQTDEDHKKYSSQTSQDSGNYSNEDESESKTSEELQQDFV

[2] = molecular target: T1, natural human type I interferon receptor (IFN-R) on the surface of human cells (human); experiment: inhibition of binding of 125I-IFN alpha 2 (100 pM) to Ly28 cells, 4 C; competitor: labelled IFN alpha 2
[3] = molecular target: T1, natural human type I interferon receptor (IFN-R) on the surface of human cells (human); experiment: inhibition of binding of 125I-IFN alpha 2 (100 pM) to HL60 cells, 4 C; competitor: labelled IFN alpha 2
[4] = molecular target: T1, natural human type I interferon receptor (IFN-R) on the surface of human cells (human); experiment: inhibition of binding of 125I-IFN alpha 2 (100 pM) to K562 cells, 4 C; competitor: labelled IFN alpha 2

B1: monoclonal antibody 64G12 (antibody, from another filing, IgG1, V domains shown)
VH: QVTLKESGPGILKPSQTLSLTCSFSGFSLSTSGMGIGWIRQPSGKGLEWLAHIWWDDDKYYNPSLKSQLTISRDTSTNQVFLNITSVDTVDTATYYCGRNYYPYDAWFDYWGQGTLVTVS
VL: EIVLTQSPTTMAASPGEKITITCSASSSINSNHLHWYQQKPGFSPKVLIYRTSILASGVPTRFSGSGSGTSYSLTIGTMEAEDVATYYCQQGSNIPFTFGSGTELEIKR
With B1 the IC50 [1] was 0.4 µg/mL, the IC50 [2] was 60 µg/mL and the IC50 [3] was 11 µg/mL. The IC50 [4] was 0.4 µg/mL.
